According to article doi:10.1101/2024.10.04.616715 (bioRxiv, 2024):

Target: the molecule itself
Assay: cryo-EM structure

B1: human XPR1 (Xenotropic and Polytropic Retrovirus Receptor 1) (natural protein, UniProt Q9UBH6 1-696, looked up)
chain: MKFAEHLSAHITPEWRKQYIQYEAFKDMLYSAQDQAPSVEVTDEDTVKRYFAKFEEKFFQTCEKELAKINTFYSEKLAEAQRRFATLQNELQSSLDAQKESTGVTTLRQRRKPVFHLSHEERVQHRNIKDLKLAFSEFYLSLILLQNYQNLNFTGFRKILKKHDKILETSRGADWRVAHVEVAPFYTCKKINQLISETEAVVTNELEDGDRQKAMKRLRVPPLGAAQPAPAWTTFRVGLFCGIFIVLNITLVLAAVFKLETDRSIWPLIRIYRGGFLLIEFLFLLGINTYGWRQAGVNHVLIFELNPRSNLSHQHLFEIAGFLGILWCLSLLACFFAPISVIPTYVYPLALYGFMVFFLINPTKTFYYKSRFWLLKLLFRVFTAPFHKVGFADFWLADQLNSLSVILMDLEYMICFYSLELKWDESKGLLPNNSEESGICHKYTYGVRAIVQCIPAWLRFIQCLRRYRDTKRAFPHLVNAGKYSTTFFMVTFAALYSTHKERGHSDTMVFFYLWIVFYIISSCYTLIWDLKMDWGLFDKNAGENTFLREEIVYPQKAYYYCAIIEDVILRFAWTIQISITSTTLLPHSGDIIATVFAPLEVFRRFVWNFFRLENEHLNNCGEFRAVRDISVAPLNADDQTLLEQMMDQDDGVRNRQKNRSWKYNQSISLRRPRLASQSKARDTKVLIEDTDDEANT
  stoichiometry N: 2
